T1: AtTGA2 (6xHis-HRV3C-AtTGA2-HiBiT, plasmid pEPQDKN0742) (UniProt P43273 1-330)
T1 sequence: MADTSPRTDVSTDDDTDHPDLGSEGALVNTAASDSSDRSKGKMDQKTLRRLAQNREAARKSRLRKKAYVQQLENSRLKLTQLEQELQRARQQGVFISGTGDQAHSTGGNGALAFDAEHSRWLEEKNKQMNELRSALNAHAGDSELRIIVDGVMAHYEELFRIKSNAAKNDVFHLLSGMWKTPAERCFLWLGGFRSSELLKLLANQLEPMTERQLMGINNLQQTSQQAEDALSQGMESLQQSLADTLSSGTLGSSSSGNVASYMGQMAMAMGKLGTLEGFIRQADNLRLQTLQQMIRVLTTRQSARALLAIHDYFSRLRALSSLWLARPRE

B1: TGA TFBS probe (dsDNA)
DNA 1: GACCCCTATTGCAGCTATTTCACCTGACGTAAGGGATGACGCACAGGCCATCACGCAGTA
DNA 2: TACTGCGTGATGGCCTGTGCGTCATCCCTTACGTCAGGTGAAATAGCTGCAATAGGGGTC
B2: Random control probe (dsDNA)
DNA 1: GACCCCTATTGCAGCTATTTCACACATACCAACGCTTAGCGCAATGGCCATCACGCAGTA
DNA 2: TACTGCGTGATGGCCATTGCGCTAAGCGTTGGTATGTGTGAAATAGCTGCAATAGGGGTC

Molecular target: T1, AtTGA2 (6xHis-HRV3C-AtTGA2-HiBiT, …)
Experiment: EMSA; 500 ng poly(dI-dC); 20 mM Tris-HCl pH 8.0, 50 mM KCl, 2 mM DTT, 1 mM EDTA, 500 ng poly(dI-dC), 5% glycerol, 0.05% IGEPAL CA630, 0.1 mg/ml BSA; about 500 pmol protein, 5.5 pmol probe; room temperature 1 h; 6% TBE gel
Conditions: protein: ivt; tags: N-terminal NET-6xHis-HRV3C (as described for plasmid); C-terminal HiBiT; label: Alexa-488 at 5' end of the complementary strand (Klenow extension of labelled primer S3); blunt

Binder	binding result
B1	binds
B2	no binding

From publication PMC8529701, “Biofoundry-assisted expression and characterization of plant proteins”
